B1: Pyocin L1: lectin-like pyocin, SEQ ID NO: 24; receptor believed to be common polysaccharide antigen of LPS (protein, listed as Pseudomonas aeruginosa)
chain: MASSLAPRQVIRDGQFITSPNGKYKLVMQADGNLVLYEDGTKPIWNTTPVGPGAKAVMEFNLNLYNKAGQVAWSSNVYTAYLFEEFKDEAYLNLQDDGDFGIFSDEAKWGSIVLSRPEVGVKNKIIPTGTVMVPGTEYINGNYRLAFQGDGNLVIYQINPQVVIWATYTMGADRAVVQEDGNFVIYKGTTALWHTHTATGMPAYLKFTNTGKLFLSQPTLLWTLKRGSLSKPPKVIPGQHGPLDTTPIWSWPHDYP
B2: Pyocin SD2: S-type pyocin, SEQ ID NO: 7; targeting domain binds LPS common polysaccharide antigen (protein, listed as Pseudomonas aeruginosa)
chain: MAVNDYEPGSMVITHVQGGGRDIIQYIPARSSYGTPPFVPPGPSPYVGTGMQEYRKLRSTLDKSHSELKKNLKNETLKEVDELKSEAGLPGKAVSANDIRDEKSIVDALMDAKAKSLKAIEDRPANLYTASDFPQKSESMYQSQLLASRKFYGEFLDRHMSELAKAYSADIYKAQIAILKQTSQELENKARSLEAEAQRAAAEVEADYKARKANVEKKVQSELDQAGNALPQLTNPTPEQWLERATQLVTQAIANKKKLQTANNALIAKAPNALEKQKATYNADLLVDEIASLQARLDKLNAETARRKEIARQAAIRAANTYAMPANGSVVATAAGRGLIQVAQGAASLAQAISDAIAVLGRVLASAPSVMAVGFASLTYSSRTAEQWQDQTPDSVRYALGMDANKLGLTSSVNLSAVAKAGGTVDLPMRLTNEARGNTTTLSVVSTDGVSVPKAAPVRMAAYNATTGLYEVTVPSTTAEAPPLILTWTPASPPGNQNPSSTTPVIPKPVPVYEGAALTPLKTGPESYPGMLLDLNDLIVIFPADSGVKPVYVMLSSPLDSGIFTRRQLQKKFDSHKYDFGLGEKSANNGTLAEFRDKILEHLADPATVEKGTYHSEVNSKVHYNARTNIVVIIGEDGMFVSGWRIEPGTDQYNFYMKNEVL
B3: Pyocin AP41: S-type pyocin, SEQ ID NO: 18; effector has DNase activity (protein, listed as Pseudomonas aeruginosa)
chain: MSDVFDLGSMTTVATATGQYSFYTPPPPTPIPYLTYIARPGINKFDLPEGAKIKDLIKRYQYIGSQIPAAIMIRGVQEEIKKSTNTALANVGAIVDGELAYLASQKKEKLNPAEATPLQMASAEKAAAVELLASKQKELADARTIANAFFGYDPLTVNYVNVMNEIYGRREDKDFSFDNWSKSYSAAQKIRLIEAKISVLNSRSSALDGKVAELTRLQRLEDAQHAAEAARQTEAERLAQEQRQAEARRQAEEARRQAEAQRQAELQRLAEAEAKRVAEAEKKRQDEINARLQAIVVSESEAKRIEEIYKRLEEQDKISNPTVTTPPAVDAGSRVDDALAHTGTRVTSGGETGATGGSGRDVDTGTGQGGITARPVDVGSVSIPDRRDPKIPDQPRRDLGSLVPTFPDFPTFPSFPGVGVPAAAKPLIPAGGGAASVSRTLKTAVDLLSVARKTPGAMLGQVAAVVATMAVSSFWPKLNNGERQASFAIPVAELSPPLAVDWQAIAAAKGTVDLPYRLKTLNVDGSIQIIAVPTEPGSAAVPVRALTLDSASGTYKYTTTGPGGGTILVTPDTPPGQIDPSSSTPAVPRGPLIMPGTLLIPKEPQIESYPELDQREFNDGIYVYPEDSGIPPLYIVYRDPRDEPGVATGNGQPVTGNWLAGASQGDGVPIPSQIADQLRGKEFKSWRDFREQFWMAVSKDPSALENLSPSNRYFVSQGLAPYAVPEEHLGSKEKFEIHHVVPLESGGALYNIDNLVIVTPKRHSEIHKELKLKRKEK

Experiments:
P. aeruginosa P8 = assay: Mouse model of acute lung infection, P. aeruginosa P8; assay type: in vivo, Pseudomonas aeruginosa; details: for Lowest active concentration tested: lowest concentration tested with which the treated mice survived to 24 h; for Corresponding molarity: molarity of lowest active concentration tested; for reduction of bacterial load in lung: 3 mg ml^−1 intranasal 1 h post-infection, culled 4.5 h post-infection (FIG. 1c); for reduction of bacterial numbers in lung: C57/BL6 mice, 3 mg ml^−1 intranasal 6 h pre-infection, culled 4 h post-infection (FIG. 1a)
Method: Study design. […] For all experiments 6 week-old, female, murine pathogen free C57/BL6 mice weighing 15-21 g were used (Charles Rivers Laboratories, UK). All mice received food and water ad libitum and were housed in groups during the experiments. Power calculations were used to predetermine sample size (n=6, for all treatment experiments). Mice were culled when required as determined by a scoring system or culled at the pre-determined 24 h time point. All mice, including outliers were included in the statistical analysis. Experiments were either carried out once only or repeated once (defined for each experiment).
(§1) Model of acute lung infection. Female C57/BL6 mice were inoculated intranasally with 25 μl of bacterial culture containing approximately 10^7 CFU of the selected P. aeruginosa strain^36. Antibiotic treatments were administered at either 6 h pre-infection or 1 h post-infection and were administered only once. Pyocins or tobramycin dissolved in PBS were administered via intranasal administration as described above. Two different end-points were used in these experiments. In order to determine a reduction in the bacterial load of the lungs compared to the untreated controls, all mice in the experiment were culled by carbon dioxide asphyxiation at the same time; 4-6 h post infection. To determine if mice could survive infection after pyocin or tobramycin treatment, mice were monitored closely, culled by carbon dioxide asphyxiation when required as determined by a scoring system or culled at the pre-determined 24 h time point. Uninfected mice, treated with pyocins, were used as controls in the first series of experiments in order to ensure no adverse effects from pyocin treatment. These controls were stopped in later experiments in order to reduce the number of animals used, once it was clear that the pyocins were not harmful. For CFU determination, lungs were removed aseptically and kept on ice in 750 μl of PBS until homogenised. Serial 10-fold dilutions of the homogenised lung were plated on Pseudomonas selective agar (20 g peptone, 1.5 g K2HPO4, 1.5 g MgSO4·7H2O, 10 ml glycerol, 15 g agar, 0.025 g Irgasan per litre) and incubated at 37° C. for 24 h and then room temperature for 24 h before the colonies were counted.

P8AP41T [1] = assay: Pyocin sensitivity in vitro (spot tests) of strain P8AP41T; assay type: cell-based, Pseudomonas aeruginosa
Method: Pyocin sensitivity assays: overlay spot plate method. Soft agar overlay spot plates were performed using the method of ^35. 150 μl of test strain culture at OD600 nm=0.6 was added to 6 ml of 0.8% soft agar and poured over an LB agar plate. 5 μl of bacteriocin, lung homogenate or blood at varying concentrations was spotted onto the plates and incubated for 24 h at 37° C.
(§2) In order to determine if pyocin tolerance or resistance was acquired upon pyocin treatment in vivo, viable bacteria recovered from mice that survived infection to the 24 h end-point, in all experiments discussed in this work, were tested for pyocin susceptibility. From these experiments no pyocin resistant colonies were isolated. […] Importantly, sensitivity to pyocins S5 and L1 were unaffected in vitro in this pyocin AP41-tolerant strain (FIG. 3a) and this was also shown to be the case in vivo when mice were infected with P8AP41T.

[2] = system: P. aeruginosa P5 (mucoid); assay: Mouse model of acute lung infection, P. aeruginosa P5; assay type: in vivo, Pseudomonas aeruginosa; details: for survival / protection: pyocin 3 mg ml^−1, endpoint 24 h, infected controls culled at 4.5 h; for bacterial count in lung, P5: pyocin 3 mg ml^−1, treated mice survived to 24 h, no treatment 1.7 × 10^5 CFU/lung
Method: as §1
(§3) Since strains of P. aeruginosa are phenotypically diverse, we tested the efficacy of the pyocins against three additional isolates: P. aeruginosa P17 and P. aeruginosa P5 (mucoid), both from cystic fibrosis patients and P. aeruginosa E2, an environmental isolate. Pyocin S2 was not active against P. aeruginosa P5 or P. aeruginosa E2 in vitro therefore was not used to treat these strains in vivo and similarly pyocin L1 was not used against P. aeruginosa P17. […] Lung homogenates from P. aeruginosa E2-infected AP41-treated mice contained high levels of viable bacteria, reduced only 10-fold relative to control mice (Table 1). […] Thus, pyocins show strong efficacy against diverse strains of P. aeruginosa with pyocin S5 treatment displaying the largest effect on reducing bacterial load.

P8AP41T [3] = assay: Mouse model of acute lung infection, AP41 tolerant strain P8AP41T; assay type: in vivo, Pseudomonas aeruginosa; details: 3 mg ml^−1 1 h post-infection; for bacterial numbers in lung homogenates: 24 h (FIG. 3b); for survival: endpoint 24 h, PBS controls culled 6 h post-infection (FIG. 3b)
Method: as §1, §2

P. aeruginosa E2 = assay: Mouse model of acute lung infection, P. aeruginosa E2; assay type: in vivo, Pseudomonas aeruginosa; details: for survival / protection: pyocin 3 mg ml^−1, endpoint 24 h, infected controls culled at 5.5 h
Method: as §1, §3

P. aeruginosa PA01 = assay: Mouse model of acute lung infection, P. aeruginosa PA01; assay type: in vivo, Pseudomonas aeruginosa
Method: as §1, with “Uninfected mice, treated with pyocins, were used as controls in the first series of experiments in order to ensure no adverse effects from pyocin treatment. These controls were stopped in later experiments in order to reduce the number of animals used, once it was clear that the pyocins were not harmful. For CFU determination, lungs were removed aseptically and kept on ice in 750 μl of PBS until homogenised.” left out
A similar experiment was performed using pyocin SD2. […] The bacterial load of the lungs was determined and control mice had approx 2×10^5 CFU/lung, 6 h after infection.

[4] = system: collection of diverse environmental and clinical isolates; assay: Activity against a collection of diverse environmental and clinical isolates; assay type: cell-based, Pseudomonas aeruginosa
P. aeruginosa P17 = assay: Mouse model of acute lung infection, P. aeruginosa P17; assay type: in vivo, Pseudomonas aeruginosa
Method: as §1, §3

| Molecule | Lowest active concentration tested (P. aeruginosa P8) | Corresponding molarity (P. aeruginosa P8) | reduction of bacterial load in lung (P. aeruginosa P8) | reduction of bacterial numbers in lung (P. aeruginosa P8) | survival / protection [2] | bacterial count in lung, P5 [2] | bacterial numbers in lung homogenates (P8AP41T [3]) | survival (P8AP41T [3]) | survival / protection (P. aeruginosa E2) | further results |
| --- | --- | --- | --- | --- | --- | --- | --- | --- | --- | --- |
| NC[C@H]1O[C@H](O[C@H]2[C@H](O)[C@@H](O[C@H]3O[C@H](CO)[C@@H](O)[C@H](N)[C@H]3O)[C@H](N)C[C@@H]2N)[C@H](N)C[C@@H]1O [Tobramycin, tobramycin, reference compound] | 300 µg/mL | 641 µM | – | – | – | – | – | – | – | survival (P. aeruginosa P8; 300 μg ml^−1, 1 h post-infection (FIG. 2b)): survived to 24 h; bacterial counts compared to the PBS controls (P. aeruginosa P8; 300 μg ml^−1, 24 h post-infection (FIG. 2b)): significantly reduced the bacterial counts |
| B1 | 30 µg/mL | 1.06 µM | approximately 20 fold | ~1500 fold | survived until the 24 h endpoint | 40 CFU/lung | significantly reduced bacterial numbers | survived until the endpoint of the experiment at 24 h | survived until the 24 h endpoint | sensitivity of the pyocin AP41-tolerant strain in vitro (P8AP41T [1]; spot tests, FIG. 3a): unaffected; mice culled at 6 h post-infection due to the severity of symptoms (P. aeruginosa P8; 30 μg ml^−1, six mice): three of the six; survival (P. aeruginosa P8; 300 μg ml^−1, endpoint 24 h post-infection): survived until the endpoint of the experiment at 24 h post-infection; bacterial count in lung, E2 (P. aeruginosa E2; pyocin 3 mg ml^−1, treated mice survived to 24 h, no treatment 1.5 × 10^5 CFU/lung): No colonies |
| B2 | – | – | – | – | – | – | – | – | – | bacterial load of the lungs (P. aeruginosa PA01; 3 mg ml^−1 1 h post-infection, 24 h post-infection, control approx 2×10^5 CFU/lung at 6 h): no colonies or 10; survival (P. aeruginosa PA01; C57/BL6 mice, 3 mg ml^−1 intranasal 1 h post-infection, endpoint 24 h (FIG. 7)): survived to the endpoint of the experiment at 24 h |
| B3 | 30 µg/mL | 0.319 µM | ~130 fold | ~650 fold | successful | No colonies | significantly reduced bacterial numbers | survived until the endpoint of the experiment at 24 h | failed to afford protection | increased tolerance of isolate P8AP41T (P8AP41T [1]; single isolate from pyocin AP41 (3 mg ml^−1 post-infection) treated bacteria): approximately 1000 fold; susceptibility of P8AP41T during infection (P8AP41T [1]; strain recovered from untreated control mice (P8AP41T*), FIG. 3a): remained tolerant; survival (P. aeruginosa P8; 300 μg ml^−1 and 30 μg ml^−1 (both concentrations), endpoint 24 h post-infection): survived until the endpoint of the experiment at 24 h post-infection; strains against which active [4]: 87%; bacterial count in lung, P17 (P. aeruginosa P17; 1 mouse that coughed up the treatment, culled at 4 h post-infection): ^+1 mouse coughed up AP41 treatment and was culled at 4 h post-infection, bacterial count 1.3 × 10^5 CFU/lung.; survival / protection (P. aeruginosa P17; pyocin 3 mg ml^−1, endpoint 24 h, infected controls culled at 4 h): five out of six; bacterial count in lung, P17 (P. aeruginosa P17; pyocin 3 mg ml^−1, treated mice survived to 24 h, no treatment 4.4 × 10^5 CFU/lung): No colonies; reduction of viable bacteria in lung homogenates relative to control mice (P. aeruginosa E2; pyocin 3 mg ml^−1, culled at 5.5 h post-infection): 10 fold; bacterial count in lung, E2 (P. aeruginosa E2; pyocin 3 mg ml^−1, mice culled at same time as control (5.5 h post-infection)): 1.3 × 10^4 CFU/lung |

From patent US12162911B2, “Pulmonary administration of pyocins for treating bacterial respiratory infections” (priority 2014, dated 2024)
